Experimental data reported in the supplement of paper PMC9170038.

Test system: MS2 coat protein
Assay: apparent KD of MS2 coat protein; designed switch direction (-1 OFF switch, 1 ON switch): -1; higher = weaker reporter binding
Method in brief: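 For each design, the apparent KD is the median over clusters of curves fitted to normalised cluster fluorescence. Clusters held RNA switches with common flanks, transcribed on Illumina chips by stalled E. coli RNA polymerase. These were titrated with SNAP-549-labelled MS2 coat protein, doubling from 0.7 or 1.5 nM to 3 µM, without input, with 200 uM small-molecule ligand, or with an oligonucleotide input.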

[1] = input ligand: microRNA oligo, concentration not stated
[2] = Eterna round: R95, input ligand: FMN 200 uM
[3] = Eterna round: R95, input ligand: microRNA oligo, concentration not stated
[4] = Eterna round: R95, input ligand: none

Row | Sequence | apparent KD of MS2 coat protein [1] | apparent KD of MS2 coat protein (input ligand: FMN 200 uM) | apparent KD of MS2 coat protein (input ligand: none) | apparent KD of MS2 coat protein [2] | apparent KD of MS2 coat protein [3] | apparent KD of MS2 coat protein [4]
1 | AUUAUAUAGUUAGGAUAUUGAUUAUUAUUUUAACAUGAGGAUCACCCAUGUAGCCUUAUGUAUAACAAGAAGGAACAUUUAUUA [Title] (Eterna round: R96, puzzle: Exclusion NG 2) | 97.9 nM | – | – | – | – | –
2 | ACAUGAGGAUCACCCAUGUGGACGUAAUGGCUCAUGUAGAGUGAGGAUAUGUGAGACGAACGAGAACAGAAGGCACAAGACAGG [Deportation 7 - Jieux - Exclusion NG 3] (Eterna round: R96, puzzle: Exclusion NG 3) | 14.5 nM | 26.3 nM | 22.1 nM | – | – | –
3 | UCGGGCGCAGGAUAUGCCUUCCGGUACAUGAGGAUCACCCAUGUCGGGCAGUGCUGCGGAGUAGAAGGGCGUUGAG [Eternabot (L2) Solution 74] (Eterna round: R97, puzzle: Exclusion 5) | – | 15.8 nM | 16.6 nM | – | – | –
4 | CAAUAGUGAGGAUAUCUGAUCACACCAUGAAGAAGGAGUGUAGAGAAGGCACAUGAGGAUCACCCAUGUCCCGU [Eternabot (L2) Solution 43] (Eterna round: R97, puzzle: Exclusion 4) | – | 37 nM | 23.9 nM | – | – | –
5 | AAUAGGACAGGAUAUCCGGAGUCGAACAUGAGGAUCACCCAUGUGAUGAGGAUGUUCGCUGGAGAAGGGUCGGGCU [Teonus] (puzzle: Exclusion 5) | – | – | – | 83.9 nM | 56.5 nM | 53.7 nM
6 | UUUAAUUUUUUUUUUUUACAAGCUUUUUGCUCGUCUUAUACAUGAGGAUCACCCAUGUAAAUGAGGGAUAAAUUAUC [JMF 38] (puzzle: Sensor v3, turn-off variant 2) | – | – | – | 15.4 nM | 21.3 nM | 15.7 nM
7 | UCCUCACAUGAGGAUCACCCAUGUCAGGAUAUACAAGAAAAUAACCGGAAAGAACGGAGUAGAAGGGACAUAAG [Xeontiorer] (puzzle: Exclusion 1) | – | – | – | 27.4 nM | 15.6 nM | 15.5 nM
8 | GUGAUAACCAAGCUAGCCAACAUGAGGAUCACCCAUGUGUUCGAUAUGCAACAGGUAUGAUCUUAAUUUGCUCGAUC [Eternabot (Original) Solution 20] (Eterna round: R97, puzzle: Sensor, turn-off variant 1) | – | 44.3 nM | 48.5 nM | – | – | –
9 | CGGUCAUGAGGAUAUCGAGGUUAGUACAUGAGGAUCACCCAUGUUAUCCAGGUGUCGGUUCGAGAAGGCAUGUCCG [LRO-Ex5-12] (puzzle: Exclusion 5) | – | – | – | – | 287 nM | –
10 | AAACUGUGAGGAUAUGGUGAGUAGUGCCUGAGCGCUGCUCACCAGAAGGCACAUGAGGAUCACCCAUGUAUAAA [Mat - Exclusion 4 - Mod of JL - D6] (puzzle: Exclusion 4) | – | – | – | – | 24.2 nM | –
11 | GCUUGCUUUUUGGUUUUCAACAUGAGGAUCACCCAUGUUCGUCUUGUGCCCGGGCCCGGGCGGUGCCCGGGCCCGGG [A 9%] (Eterna round: R97, puzzle: Sensor, turn-off variant 1) | – | 17.9 nM | 17.8 nM | – | – | –
12 | AAGUAUAGAGGAUAUAGUGAGUACUACAUGAGGAUCACCCAUGUUCUUCAAAGCGUAUUUCUAGAAGGCUAAUGAA [EX-5 Malc#14] (puzzle: Exclusion 5) | – | – | – | – | 43.3 nM | –
13 | UUUUGGCAUGUAGGAUAUGGGUCCGAUUAGGAUUUAGAAGGACAUGAGGAUCACCCAUGUGCCCUUACUUGGUCUUUUUUUUUU [EXclNG1-LROPPY18] (Eterna round: R96, puzzle: Exclusion NG 1) | 19.2 nM | 52.3 nM | 41.2 nM | – | – | –
14 | GGCUAGUCAGGAUAUACGAACAUGUCAAAAGACGUGAAGGGACAUGAGGAUCACCCAUGUAGAAGGGACUAGCC [salish99_ex2_r3_004] (puzzle: Exclusion 2) | – | – | – | – | 21.8 nM | –
15 | GUGUUACAUGAGGAUCACCCAUGUGAGGAUAUGAGUCAGUCACGGUGACGUGGCUGACUCAGAAGGCACAAAGG [Mat - Exclusion 1 - JL Mod - D39] (Eterna round: R97, puzzle: Exclusion 1) | – | 291 nM | 93.9 nM | – | – | –
16 | CUGCUCCGUGUAGGAUAUGCGCGCACCCACCGCGCAGAAGGACAUGAGGAUCACCCAUGUAUGUUAUUAUCACGUGAGGCGCAG [Design 35] (Eterna round: R96, puzzle: Exclusion NG 1) | 13.6 nM | 29.6 nM | 19.2 nM | – | – | –
17 | AGCGAGGCAGGAUAUACAUGAGGAUCACCCAUGUGCUUGCAUGGCGUGGGACGUCGAGGUAGAAGGGCCAUGCC [EX3 #70] (Eterna round: R97, puzzle: Exclusion 3) | – | 87.3 nM | 52.1 nM | – | – | –

Row | Sequence | apparent KD of MS2 coat protein [1] | apparent KD of MS2 coat protein (input ligand: FMN 200 uM) | apparent KD of MS2 coat protein (input ligand: none) | apparent KD of MS2 coat protein [2] | apparent KD of MS2 coat protein [3] | apparent KD of MS2 coat protein [4]
18 | AGCUAAAUAGGAUAUGCCCGGGAUAACAUGAGGAUCACCCAUGUGACCGAUUCAUGUCCUGCAGAAGGAUUUGGGA [Mod of ViennaUCT 5 - Jieux - Exclusion 5] (Eterna round: R97, puzzle: Exclusion 5) | – | 17 nM | 13 nM | – | – | –
19 | UGUUGUCGCGCAGGAUAUGAGGAUCACCCAUAUAAAGGAUAUGAAAAGAAGGUUCUGAGGAUUACCCAGAAGGGCGGGACAACU [pwkr exNG2 2xF5 2xFMN.16] (Eterna round: R96, puzzle: Exclusion NG 2) | 40.3 nM | 250 nM | 52.3 nM | – | – | –
20 | ACGCAUUGCCUUUGGUAGUGCGUAACAUGAGGAUCACCCAUGUAGGAUAUGGUAGGCUUUGCUUACCAGAAGGACAUUAUAAAG [Mat - Exclusion NG 3 - Mod of JL - D10] (Eterna round: R96, puzzle: Exclusion NG 3) | 28.4 nM | 51.6 nM | 34.1 nM | – | – | –
21 | GCAGAAUGAGUUAGGAUAUGAUGAUUAUUCGGAAAUCAGAAGGAACUUGAGGAUCACCCAAGUAAAGAUAGGGU [JR_BMEx4_Sub063] (Eterna round: R97, puzzle: Brourd's mod of Exclusion 4) | – | 361 nM | 221 nM | – | – | –
22 | GCUACUCCAGUCAGGAUAUGGAUCGGCUAAAAGACCCAGAAGGGACUUGAGGAUCACCCAAGUAACGGCUCGGG [Soveare] (Eterna round: R97, puzzle: Brourd's mod of Exclusion 4) | – | 378 nM | 54.2 nM | – | – | –
23 | GAUUAUGCGAGCUUUAGGGACAUGAGGAUCACCCAUGUUCGUCUUAUUGAUCUAGGUACGCUAACAUACCUAAAUCU [Mod of one of jandersonlee's solutions 3] (puzzle: Sensor v3, turn-off variant 1) | – | – | – | 23 nM | 36.3 nM | 23 nM
24 | GACCCGUCAGGAUAUACAUGAGGAUCACCCAUGUAAUCAGCGAUAGGACAAGGCUCACGUAGAAGGGACAGGGU [Eternabot (L1) Solution 33] (Eterna round: R97, puzzle: Exclusion 3) | – | 44.6 nM | 22.8 nM | – | – | –
25 | GUCGUGUUAGGAUAUGGCAACUACUAAUAAAUUAGUAGUUGUUAGAAGGAACAUGAGGAUCACCCAUGUAUGAC [-23, -22.5 kcal, A 34%] (Eterna round: R97, puzzle: Exclusion 4) | – | 122 nM | 39.9 nM | – | – | –
26 | ACAUGUGUUGUAGGAUAUAGGACACAUGAGGAUCACCCAUGUGGUUUCAUGUCUAACCAAGCGUCCUAGAAGGACGGCAACAUG [Ex NG2 #27] (Eterna round: R96, puzzle: Exclusion NG 2) | 19.4 nM | 23.4 nM | 19.4 nM | – | – | –
27 | GGAGGAGAGGUUAGGAUAUCCUCCUCGAAAGAGGAGGAGAAGGAACAUGAGGAUCACCCAUGUAAGGAAGGAGG [AK-MS2ROC-r4-Bmoexclusion4-10] (Eterna round: R97, puzzle: Brourd's mod of Exclusion 4) | – | 27.1 nM | 37 nM | – | – | –
28 | CGGGUGCGGUGAGGAUAUCCGAAAGGAAGUGUAGGAGAAGGCACCAAGAACAUGAGGAUCACCCAUGUGACCUCAUAAGCCCGG [PowerStrip EXNG 1.9] (Eterna round: R96, puzzle: Exclusion NG 1) | 254 nM | 34.9 nM | 406 nM | – | – | –
29 | UUUUAGUCAGGAUAUACAUGAGGAUCACCCAUGUAAAAUUUUAAUUUAAUUUUAAGGUGUAGAAGGGACAAUAA [Ex3 #8] (Eterna round: R97, puzzle: Exclusion 3) | – | 32.2 nM | 31.3 nM | – | – | –
30 | CUAAUACAUGUGAGGAUAUACGACUUGGAGACGGCGUAGAAGGUACAUGAGGAUCACCCAUGUGCGGGCUCCUU [Eternabot (L1) Solution 49] (Eterna round: R97, puzzle: Brourd's mod of Exclusion 4) | – | 55.9 nM | 27.5 nM | – | – | –
31 | UUCCUCACUUCUUUGUCUCACAUGAGGAUCACCCAUGUAAUAUAGGAUAUGCUUAGUAUUUAUAUGCAGAAGGAUAUUAGUAUU [JR_ExcNG3_Sub084] (Eterna round: R96, puzzle: Exclusion NG 3) | 39.8 nM | 157 nM | 55.5 nM | – | – | –
32 | UCGGCGCGAGGAUAUGCGGCUCCUGCUUCGGGCCGGAGCGUACAUGAGGAUCACCCAUGUAGAAGGCGCGCCGC [Apr-15 SS2-39] (puzzle: Exclusion 2) | – | – | – | – | 10.2 nM | –
33 | UCAAUUUUGACAGGAUAUAGUUUUUGUUUUUCUCUAGAAGGGUCUUUGCACAUGAGGAUCACCCAUGUUCUUUUUAUUUGCAUU [JR_ExcNG1_Sub015] (Eterna round: R96, puzzle: Exclusion NG 1) | 42.3 nM | 62.2 nM | 63.3 nM | – | – | –
